In the supplement of paper PMC12042874:
± gives the uncertainty stated by the source.

Test: amyloid nucleation score (Sup35N fusion, yeast selection) (log enrichment); library NNK3; higher = more nucleation; inactive = no reads after selection
Summary of the method: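 Plasmid inserts were Illumina-sequenced at input and output from psi-negative yeast expressing Sup35N fused to peptides of 20 random codons. The yeast were induced with 100 μM copper sulfate for 24 hours and grown 7 days at 30°C on medium lacking adenine and uracil, and sequences with under 100 input reads were excluded. Nucleation score is the DiMSum log enrichment of output over input reads, centred on the mode score of non-aggregating sequences.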

Amyloid nucleation score, inactive:
RNNVMYVGYEGI
RNRLN
RNYFMVLGRKYVFLFFWMMM
RPAVLGPAFRYSSLAP
RPFGLAVTRWAPSFAGSRTS
RPFSNAGYAFNHGFFV
RPMRDCIGHSQS
RPRWFGPRSVVGMRASCTCW
RQFCSQLICSIMVYVCLCGI
RQGGVNRNSVSMHSHGYRDC
RQVTLARWTISIC
RRAVVLSVRGWRSAVTSRFS
RRCSIFLVVDIAGQLQRFMS
RRFTHRIEVRTSVAIS
RRGIWDSVKMEKFL
RRKHHVISQVPERPLSWLAT
RRKRYCISDLA
RRKYW
RRLLSKGVKIVRLISDEVYC
RRLQV
RRLVMDTTRLACKRYWRFLN
RRNWSCMQTLSLANVVRVSA
RRRGNKAFHPLQ
RRSYTFRSVGKEWNIAYWYI
RRTMSSLFFKFDLH
RRYPRTLYERVSCVS
RRYVSSDFFLSAWWTVS
RSAERRAQNSNFKLVDLGRN
RSFRSKPKYLLTSDTCWSLT
RSGWS
RSHPKCHSSLLHSWK
RSKRSLCRGLPDMYAWKWSR
RSMSSGAICSMSY
RSMVGWACYLSWRFA
RSNLIILSAHYRLYMDLRCA
RSQNF
RSRKKRCFLKFILKNFVWSV
RSRVSQFICRPGEVVNIAKC
RSTRIGLIYYMGMSATCTWG
RSTSSENYFYWFKS
RSTSVWRFLWMLHVFSKLLH
RSTWMAIWKERYMQTGFL
RSYLHCSTK
RSYRI
RTFMYMWRSEIF
RTIQFPS
RTLRRLTGNSILFRYWSNKG
RTRTCRYFLIVYSVVCLMSI
RTSEPKTAHIMNEAIRRC
RTSLYICINKRTLSHRLFPC
RTVDSH
RTWNVESFREFGCFKINLGP
RVAQTAVRVSWALDRFYLWD
RVFNIEYMLECAFFRTIRD
RVRDCSHRLLDIFVYLCGNT
RVRRLT
RVWVMV
RWELGIQALVR
RWIFIT
RWLFRSWPGRRMA

Amyloid nucleation score, 1.04 ± 0.15:
RSVRFFVKMINFFASY

Amyloid nucleation score, 0.163 ± 0.43:
RRMNISRGSCVELWFRFQWP

Amyloid nucleation score, -0.534 ± 1.5:
RTRSVLQIWLSFMMLCQACW

Amyloid nucleation score, 0.268 ± 0.27:
RRNEFVLWYLGDTSWYVWFS

Amyloid nucleation score, 0.204 ± 0.43:
RSARQHFPRNRGGNHSSDRV

Amyloid nucleation score, 1.8 ± 0.086:
RVQIKVDGVSVHTDFSDWRS

Amyloid nucleation score, 1.01 ± 0.21:
RSQALFLNWTCDCGGYINQI

Amyloid nucleation score, -0.1 ± 0.6:
RNTGKAVHFCNRVYDSSMSM

Amyloid nucleation score, 2.18 ± 0.097:
RRKKQFFFLFFSHRNLFFPV

Amyloid nucleation score, 1.16 ± 0.14:
RWKLFWIHDR

Amyloid nucleation score, 0.645 ± 0.24:
RVQWALLSIKGHCS

Amyloid nucleation score, 1.81 ± 0.056:
RNMNLLSMHIGLISLFSGEL

Amyloid nucleation score, 2.56 ± 0.065:
RSIDGKSYNLAYLLGGLRNS

Amyloid nucleation score, 0.481 ± 0.32:
RVLVHYEVGFSENSRWGSVD

Amyloid nucleation score, -0.095 ± 0.85:
RVKRWK

Amyloid nucleation score, -0.345 ± 1.3:
RSAKAYLTLWCRMYNPRIYM

Amyloid nucleation score, 1.78 ± 0.12:
RNWCSLNNLFYPWV

Amyloid nucleation score, 2.56 ± 0.052:
RTLTLLYTFF

Amyloid nucleation score, -0.577 ± 1:
RVERICDNVSSC

Amyloid nucleation score, -0.06 ± 0.87:
RQSALRWFSNDNWGICKAHD

Amyloid nucleation score, -0.147 ± 1.1:
RVRCDWCFGRGVCMTAIRQD
